Assays:
NTSR1 = NTSR1 (UniProt P30989); test: cell-based or functional assay
[1] = target: p12026-BSA-conjugate (human); test: ELISA, plate coated with p12026-BSA-conjugate 4 µg/ml; serum dilution 1:100
[2] = target: p12026-BSA-conjugate (human); test: ELISA, plate coated with p12026-BSA-conjugate 4 µg/ml; serum dilution 1:200
[3] = target: p12026-BSA-conjugate (human); test: ELISA, plate coated with p12026-BSA-conjugate 4 µg/ml; serum dilution 1:400
[4] = target: p12026-BSA-conjugate (human); test: ELISA, plate coated with p12026-BSA-conjugate 4 µg/ml; serum dilution 1:800
[5] = target: p12026-BSA-conjugate (human); test: ELISA, plate coated with p12026-BSA-conjugate 4 µg/ml; serum dilution 1:1600
[6] = target: p12026-BSA-conjugate (human); test: ELISA, plate coated with p12026-BSA-conjugate 4 µg/ml; serum dilution 1:3200
[7] = target: p12026-BSA-conjugate (human); test: ELISA, plate coated with p12026-BSA-conjugate 4 µg/ml; serum dilution 1:6400
[8] = target: p12026-BSA-conjugate (human); test: ELISA, plate coated with p12026-BSA-conjugate 4 µg/ml; serum dilution 1:12800

p12026-BSA-conjugate (human), sequence (P02769 25-607 limits assumed): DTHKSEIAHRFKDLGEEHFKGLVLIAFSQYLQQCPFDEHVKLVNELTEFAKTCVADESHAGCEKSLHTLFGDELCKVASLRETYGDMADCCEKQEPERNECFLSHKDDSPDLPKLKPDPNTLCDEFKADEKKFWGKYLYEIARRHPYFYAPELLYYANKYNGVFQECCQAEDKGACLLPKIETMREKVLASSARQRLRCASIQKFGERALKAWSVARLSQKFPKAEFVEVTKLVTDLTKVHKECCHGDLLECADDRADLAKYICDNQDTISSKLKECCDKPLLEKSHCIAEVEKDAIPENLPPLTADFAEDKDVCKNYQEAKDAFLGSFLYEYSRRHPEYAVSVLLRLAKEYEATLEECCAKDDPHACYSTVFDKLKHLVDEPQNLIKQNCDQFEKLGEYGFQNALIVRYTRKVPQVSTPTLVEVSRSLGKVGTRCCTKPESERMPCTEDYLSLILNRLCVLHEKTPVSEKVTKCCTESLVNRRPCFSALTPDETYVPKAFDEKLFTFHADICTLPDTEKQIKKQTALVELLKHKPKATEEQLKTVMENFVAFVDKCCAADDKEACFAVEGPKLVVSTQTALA
NTSR1, sequence (P30989 whole entry): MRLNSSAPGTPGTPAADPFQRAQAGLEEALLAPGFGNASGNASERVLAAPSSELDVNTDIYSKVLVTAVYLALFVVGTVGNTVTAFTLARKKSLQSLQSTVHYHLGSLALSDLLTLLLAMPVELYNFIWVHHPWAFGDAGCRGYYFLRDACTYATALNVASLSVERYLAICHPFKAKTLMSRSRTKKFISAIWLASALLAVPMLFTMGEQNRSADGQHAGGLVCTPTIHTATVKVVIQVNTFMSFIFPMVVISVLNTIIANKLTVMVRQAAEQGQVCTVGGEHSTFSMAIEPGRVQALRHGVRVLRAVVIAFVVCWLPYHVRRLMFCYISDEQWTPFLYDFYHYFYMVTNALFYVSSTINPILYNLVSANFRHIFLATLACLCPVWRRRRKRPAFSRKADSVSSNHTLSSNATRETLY

reduction of cell growth of CHO NTSR1 overexpressing cells (NTSR1) [%]	OD405nm [1] [OD405nm]	OD405nm [2] [OD405nm]	OD405nm [3] [OD405nm]	OD405nm [4] [OD405nm]	OD405nm [5] [OD405nm]	OD405nm [6] [OD405nm]	OD405nm [7] [OD405nm]	OD405nm [8] [OD405nm]	Substance
60									NTS released or expressed by cancer cells (from UniProt P30990 24-163) (ligand)
	0.032	0.016	0.016	0.012	0.008	0.01	0.009	0.004	normal serum (antibody)

— patent publication US20170218057A1
